The target in the data set is MPXV E5_∆N (Mpox virus, UniProt A0A7H0DN89 323-785). Description: cryo-EM (2.67 A). Particulars: protein: recombinant; tags: SUMO fusion; protease-treated (ULP or TEV); chain copies: 6.
Chain of MPXV E5_∆N (A0A7H0DN89 323-785): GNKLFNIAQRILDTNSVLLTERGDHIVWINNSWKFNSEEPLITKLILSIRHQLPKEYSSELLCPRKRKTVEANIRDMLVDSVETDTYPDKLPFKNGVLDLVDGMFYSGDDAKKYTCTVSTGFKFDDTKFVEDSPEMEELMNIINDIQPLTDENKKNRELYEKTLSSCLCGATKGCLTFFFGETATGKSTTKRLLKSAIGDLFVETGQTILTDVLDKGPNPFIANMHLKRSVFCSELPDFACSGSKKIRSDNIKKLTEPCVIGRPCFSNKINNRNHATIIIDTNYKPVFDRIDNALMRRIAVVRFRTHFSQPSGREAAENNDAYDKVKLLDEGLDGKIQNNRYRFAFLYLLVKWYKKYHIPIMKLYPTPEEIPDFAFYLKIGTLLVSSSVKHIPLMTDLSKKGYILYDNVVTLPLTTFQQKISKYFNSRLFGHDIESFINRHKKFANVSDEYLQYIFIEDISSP

B1: Forked DNA (mixed)
DNA 1: AACGAGTCAAGCGCATCCCGTTTTTTTTTTTTTTT
DNA 2: TTTTTTTTTTTTTTTCGGGATGCGCTTGACTCGTT
Turning to B1, the binding result is “binds”.
